Source: article PMC5269676 (Scientific Reports, 2017)

T1: Kelch domain of Keap1
T1 construct: Cloned into pET-28a in frame with an N-terminal His tag and a TEV protease cleavage site; stored in 20 mM Tris pH 7.5, 5 mM DTT; source: E. coli BL21 (DE3), purified (Ni-NTA, His tag cut off, Ni-NTA flow-through, Superdex 75, if necessary Mono Q); not shown: His tag, N-terminal, cleaved
T1 chain: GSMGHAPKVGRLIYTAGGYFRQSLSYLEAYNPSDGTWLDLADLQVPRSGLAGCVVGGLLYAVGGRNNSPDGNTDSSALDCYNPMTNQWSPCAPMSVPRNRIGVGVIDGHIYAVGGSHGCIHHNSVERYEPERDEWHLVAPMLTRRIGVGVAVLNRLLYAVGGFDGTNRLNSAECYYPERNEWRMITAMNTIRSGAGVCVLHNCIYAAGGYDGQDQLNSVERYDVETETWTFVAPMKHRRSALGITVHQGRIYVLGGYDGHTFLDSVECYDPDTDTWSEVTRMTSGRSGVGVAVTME

B1: G54 (antibody, V domains shown)
VH: EVQLVESGGGLVQPGGSLRLSCAASGFAISASSIHWVRQAPGKGLEWVASISPETGETYYADSVAGRFTISADTSKNTAYLQMNSLRAEDTAVYYCARQGYAARSGAGFDYWGQGTLVTVSS
VL: DIQMTQSPSSLSASVGDRVTITCRASQSVSSAVAWYQQKPGKAPKLLIYSASSLYSGVPSRFSGSRSGTDFTLTISSLQPEDFATYYCQQSYSFPSTFGQGTKVEIK
B2: LS146-scFv (scFv, V domains shown)
VH: EVQLVESGGGLVQPGGSLRLSCAASGFAISASSIHWVRQAPGKCLEWVASIDPETGETLYAKSVAGRFTISADTSKNTAYLQMNSLRAEDTAVYYCARAYAGDGVYYADVWGQGTLVTVSS
VL: DIQMTQSPSSLSASVGDRVTITCRASQSVSSAVAWYQQKPGKAPKLLIYSASSLYSGVPSRFSGSRSGTDFTLTISSLQPEDFATYYCQQSYSFPSTFGCGTKVEIK
notes: VH of LS146; (Gly4Ser)4 linker, written out; VL of LS146; The His10 tag is cleavable by TEV protease; also called LS146 formatted as a single chain Fv; crystal LS146-scFv; source: CHO-S XE cells; purification in Supplementary Methods
B3: LS146-scFv (scFv)
scFv: EVQLVESGGGLVQPGGSLRLSCAASGFAISASSIHWVRQAPGKCLEWVASIDPETGETLYAKSVAGRFTISADTSKNTAYLQMNSLRAEDTAVYYCARAYAGDGVYYADVWGQGTLVTVSSGGGGSGGGGSGGGGSGGGGSDIQMTQSPSSLSASVGDRVTITCRASQSVSSAVAWYQQKPGKAPKLLIYSASSLYSGVPSRFSGSRSGTDFTLTISSLQPEDFATYYCQQSYSFPSTFGCGTKVEIKRT
notes: VH of LS146-scFv; (Gly4Ser)4 linker; VL of LS146-scFv; two residues between VL and the TEV site; also called scFv-LS146; source: CHO-S XE cells, transiently transfected, purified (HisTrap excel, His tag removed, HisTrap flow-through, Superdex 75); not shown: His10 (after a TEV protease cleavage site), C-terminal, cleaved
B4: G55 (antibody, V domains shown)
VH: EVQLVESGGGLIRPGGSLRLSCKGSGFIFENFGFGWVRQGPGKGLEWVSGTNWNGGDSRYGDSVKGRFTISRDNSNNFVYLQMNSLRPEDTAIYYCARGTDYTIDETGERYQGSGTFWYFDVWGRGTLVTVSS
VL: EIVLTQSPDTLSLSPGERATLSCRASQSVHSRYFAWYQHKPGQPPRLLIYGGSTRATGIPNRFSAGGSGTQFTLTVNRLEAEDFAVYYCQQYGASPYTFGQGTKVEIR
B5: G56 (antibody, V domains shown)
VH: EVQLVESGGGLIRPGGSLRLSCKGSGFIFENFGFGWVRQGPGKGLEWVSGTNWNGGDSRYGDSVKGRFTISRDNSNNFVYLQMNSLRPEDTAIYYCARGTDYTIDETGERAQGSGTFWYFDVWGRGTLVTVSS
VL: EIVLTQSPATLSVSPGERATLSCRASQNVHPRYFAWYQQKRGQSPRLLIHSGSTRAAGIADRFSGGGSGMHFTLTITRVEPEDFAVYFCQQYGGSPYTFGQGTRVELR

What was measured:
Keap1 [1] = target: Keap1 (Homo sapiens)
Keap1 [2] = target: T2, Keap1 (Homo sapiens); assay: not stated; potency of LS146-scFv against its Fab form (Supplementary Fig. S6)
T2 construct: Keap1, BTB-Kelch substrate adaptor protein; the crystallised construct is in PDB 5F72; source: recombinant, purified (procedures in Supplementary Methods)

Kelch domain of Keap1 = target: T1, Kelch domain of Keap1; assay: SPR; Biacore competition assay; concentration of LS146-scFv varied, percent inhibition fitted to a variable slope model; what was immobilised is not told; details: both partners purified

Binder	binding result (Keap1 [1])	other results
B1	binds	
B2		fold lower potency than the Fab form (LS146 Fab) (Keap1 [2]): 3 fold
B3		IC50 (Kelch domain of Keap1): 79 nM
B4	binds	
B5	binds	
